Where a chain is given by its changes, count along the chain named.

The text below walks through data of patent US20230365681A1 (CELGENE, published 2023).

Assay [1] concerns the target T1, FcγR2A (R131) recombinant protein (human, UniProt P12318 34-217).
T1 sequence (looked up): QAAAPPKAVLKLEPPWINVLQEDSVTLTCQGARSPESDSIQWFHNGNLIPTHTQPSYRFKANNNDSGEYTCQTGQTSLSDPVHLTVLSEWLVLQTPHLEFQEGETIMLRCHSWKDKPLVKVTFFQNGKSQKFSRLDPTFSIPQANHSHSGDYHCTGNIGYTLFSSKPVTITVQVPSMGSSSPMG
Description: recombinant protein, compared with control anti-RSV IgG1 antibody (p value 0.00019).

Assay [2] deals with T2, human CD47 on cells (human, UniProt Q08722 19-323). The experiment in a line: cell-based or functional assay.
T2 sequence (Q08722 19-323): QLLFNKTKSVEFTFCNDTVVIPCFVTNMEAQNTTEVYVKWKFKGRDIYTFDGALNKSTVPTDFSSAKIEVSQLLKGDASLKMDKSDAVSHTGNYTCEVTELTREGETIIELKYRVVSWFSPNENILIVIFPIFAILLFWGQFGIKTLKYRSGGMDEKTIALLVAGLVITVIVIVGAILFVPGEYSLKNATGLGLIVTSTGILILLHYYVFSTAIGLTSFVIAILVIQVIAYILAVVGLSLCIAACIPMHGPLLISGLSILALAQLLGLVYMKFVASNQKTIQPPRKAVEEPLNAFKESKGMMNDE
Assay [3] deals with T2, human CD47 on cells. The experiment in a line: blocking of human SIRPα binding to OCI-Ly3 cells, SIRPα at saturating concentration, secondary antibody detection; competitor SIRPα (repeated in paragraph 145 as average EC50); OCI-Ly3 cells (CD20+/CD47+); blocking of SIRPα binding.
The target of assay [4] is T3, FcγR2A (H131) recombinant protein (human, UniProt P12318 34-217).
T3 sequence (looked up): T1 sequence (looked up) with R134H
The experiment in a line: recombinant protein, compared with control anti-RSV IgG1 antibody (p value 0.0038).

Assay [5] concerns the target recombinant human fragment crystallizable gamma receptor (FcγR) family members tested. The experiment in a line: recombinant human FcγR proteins; method not stated.
For assay [6], the target named is T4, cynomolgus CD20 on B cells (cynomolgus monkey, UniProt M4ZHZ6 1-297).
T4 construct: whole, on cells; also called cynomolgus macaque B cells
T4 sequence: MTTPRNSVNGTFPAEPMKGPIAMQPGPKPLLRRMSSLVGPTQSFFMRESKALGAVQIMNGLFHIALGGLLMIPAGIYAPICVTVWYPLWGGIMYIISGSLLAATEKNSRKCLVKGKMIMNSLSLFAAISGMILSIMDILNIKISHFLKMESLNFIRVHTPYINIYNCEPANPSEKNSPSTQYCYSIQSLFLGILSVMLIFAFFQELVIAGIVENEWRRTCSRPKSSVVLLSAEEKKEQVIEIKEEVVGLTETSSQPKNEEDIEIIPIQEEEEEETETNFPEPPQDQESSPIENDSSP
The experiment in a line: binding to cynomolgus macaque B cells.

The target of a further assay is T5, human CD20 (human, UniProt P11836 1-297, limits assumed).
T5 sequence (looked up): T4 sequence with P25S, L31F, A51T, V157A, R217K, S226N, V227I, V239T
Description: sandwich SPR.

Assay [7] has as its target FcγR3A (F176) recombinant protein (human, UniProt P08637 17-208). Description: recombinant protein, compared with control anti-RSV IgG1 antibody (p value 0.0045).
The target in assay [8] is T6, human CD47 extracellular domain (human, UniProt Q08722 19-139).
T6 construct: extracellular domain; also called human CD47 ECD; Hu CD47
T6 sequence (Q08722 19-139 limits assumed): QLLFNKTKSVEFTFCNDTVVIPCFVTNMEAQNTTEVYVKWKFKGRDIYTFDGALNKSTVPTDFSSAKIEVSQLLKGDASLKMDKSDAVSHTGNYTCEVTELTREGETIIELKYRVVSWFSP
Description: SPR, extracellular domain of human CD47. (SPR reads the build-up and loss of mass on a sensor chip optically.)

Assay [9] deals with T7, FcγR2B on engineered HEK293 cells (UniProt P31994 43-310).
T7 construct: whole, on cells; also called FcγR2B cell line
T7 sequence (looked up): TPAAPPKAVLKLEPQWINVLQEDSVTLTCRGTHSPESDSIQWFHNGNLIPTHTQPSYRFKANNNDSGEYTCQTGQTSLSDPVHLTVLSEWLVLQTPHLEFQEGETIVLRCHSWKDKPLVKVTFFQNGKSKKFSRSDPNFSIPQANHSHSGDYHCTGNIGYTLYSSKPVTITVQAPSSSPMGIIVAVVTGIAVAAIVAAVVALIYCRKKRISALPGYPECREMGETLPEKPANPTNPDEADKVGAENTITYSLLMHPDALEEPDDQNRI
Description: TR-FRET on FcγR-engineered HEK293 cells. In general terms: Time-resolved FRET reads energy transfer from a long-lived donor to a nearby acceptor.

Assay [10] concerns the target T8, FcγR1 on engineered HEK293 cells (UniProt P12314 16-374).
T8 construct: whole, on cells; also called FcγR1 cell line
The experiment in a line: TR-FRET on FcγR-engineered HEK293 cells.

Assay [11] has as its target FcγR3A (V176) recombinant protein (human, UniProt P08637 17-208). Description: recombinant protein, compared with control anti-RSV IgG1 antibody (p value 0.0049).
Assay [12] concerns the target T9, cynomolgus CD47 extracellular domain (cynomolgus monkey, UniProt A0A2K5X523 19-141).
T9 construct: also called cynomolgus CD47 ECD
The experiment in a line: SPR, cynomolgus CD47.

Assay [13] concerns the target T6, human CD47 extracellular domain. Description: SPR, human CD47 ECD.
The target in a further assay is T10, human CD20 on cells (human, UniProt P11836 1-297).
T10 construct: whole, on cells; also called CD20 on Raji cells and human B cells
T10 sequence (looked up): T4 sequence with P25S, L31F, A51T, V157A, R217K, S226N, V227I, V239T
The experiment in a line: binding to Raji cells (CD20+/CD47+), y axis MFI (the legend paragraph 44 says SPR).

Assay [14] concerns the target T9, cynomolgus CD47 extracellular domain. Description: SPR, cynomolgus CD47 ECD.
Assay [15] concerns the target T6, human CD47 extracellular domain. Description: SPR, human CD47 ECD; Example 4 SPR; earlier determination than the 2.32 µM of paragraph 95.
Assay [16] has as its target T2, human CD47 on cells. The experiment in a line: blocking of human SIRPα binding to Raji cells, SIRPα at saturating concentration, secondary antibody detection; competitor SIRPα (repeated in paragraph 145 as average EC50); Raji cells (CD20+/CD47+); blocking of SIRPα binding.
For a further assay, the target named is T11, mouse CD47 (mouse, UniProt Q61735 19-140, limits assumed).
T11 sequence (looked up): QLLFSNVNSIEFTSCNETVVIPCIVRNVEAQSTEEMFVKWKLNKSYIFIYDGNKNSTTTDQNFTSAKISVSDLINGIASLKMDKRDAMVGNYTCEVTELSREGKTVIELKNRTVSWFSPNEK
Description: SPR.

T9 sequence (A0A2K5X523 entry or part of it limits assumed): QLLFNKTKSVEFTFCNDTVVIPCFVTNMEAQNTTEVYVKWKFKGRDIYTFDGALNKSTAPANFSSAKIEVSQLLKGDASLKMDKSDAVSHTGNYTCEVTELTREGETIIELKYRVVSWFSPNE
T8 sequence (P12314 16-374, change not shown): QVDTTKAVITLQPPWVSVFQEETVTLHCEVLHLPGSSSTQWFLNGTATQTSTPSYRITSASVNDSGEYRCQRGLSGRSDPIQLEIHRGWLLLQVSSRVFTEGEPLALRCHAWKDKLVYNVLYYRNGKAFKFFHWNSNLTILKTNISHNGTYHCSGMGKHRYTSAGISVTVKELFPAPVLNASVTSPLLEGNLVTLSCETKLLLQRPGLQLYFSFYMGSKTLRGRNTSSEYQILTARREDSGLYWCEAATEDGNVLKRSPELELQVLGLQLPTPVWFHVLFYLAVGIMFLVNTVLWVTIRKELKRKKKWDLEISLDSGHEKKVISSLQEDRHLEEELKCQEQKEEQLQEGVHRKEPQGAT
Chain of FcγR3A (F176) recombinant protein (P08637 17-208): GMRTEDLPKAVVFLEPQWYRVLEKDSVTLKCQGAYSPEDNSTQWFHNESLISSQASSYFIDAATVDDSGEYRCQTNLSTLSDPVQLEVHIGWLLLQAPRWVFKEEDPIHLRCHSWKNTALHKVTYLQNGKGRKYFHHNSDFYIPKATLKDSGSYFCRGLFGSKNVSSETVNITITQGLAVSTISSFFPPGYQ
Chain of FcγR3A (V176) recombinant protein (P08637 17-208 F176V): as the sequence (P08637 17-208) above, with F160V counted along it

B1: TPP-1360 (bispecific antibody, human IgG1, kappa)
light 1: NIQMTQSPSSLSASVGDRVTITCRASQDIHRYLSWFQQKPGKVPKHLIYRESRFVDGVPSRFSGSGSGTEFTLTISSLQPEDFATYYCLQYDEFPYTFGGGTKVEIKRTVAAPSVFIFPPSDEELKSGTASVVCWLNNFYPREAKVQWKVDNALQSGNSEESVTEQDSKDSTYSLSSTLELSKADYEKHKVYACEVTHQGLSSPVTKSFNRGEC
heavy 1: QMQLVQSGAEVKKPGSSVKVSCKASGFNIKDYYLHWVRQAPGKGLEWMGWIDPDQGDTYYAQKFQGRVTITRDRSTSTAYMELRSLRAEDTAVYYCNAAYGESSYPMDYWGQGTLVTVSSASTKGPSVFPLAPSSKSTSGGTAALGCLVKDYFPEPVTVSWNSGALTSGVHTFPAVLKSSGLYSLSSVVTVPSSSLGTQTYICNVNHKPSNTKVDKKVEPKSCDKTHTCPPCPAPELLGGPSVFLFPPKPKDTLMISRTPEVTCVVVDVSHEDPEVKFNWYVDGVEVHNAKTKPREEQYNSTYRVVSVLTVLHQDWLNGKEYKCKVSNKALPAPIEKTISKAKGQPREPQVYVLPPSREEMTKNQVSLLCLVKGFYPSDIAVEWESNGQPENNYLTWPPVLDSDGSFFLYSKLTVDKSRWQQGNVFSCSVMHEALHNHYTQKSLSLSPGK
light 2: QIVLSQSPAILSASPGEKVTMTCRASSSVSYIHWFQQKPGSSPKPWIYATSNLASGVPVRFSGSGSGTSYSLTISRVEAEDAATYYCQQWTSNPPTFGGGTKLEIKRTVAAPSVAIFPPSDERLKSGTASVVCVLNNFYPREAKVQWKVDNALQSGNSQESVTEQDSKDSTYSLSSRLTLSKADYEKHKVYACEVTHQGLSSPVTKSFNRGEC
heavy 2: QVQLQQPGAELVKPGASVKMSCKASGYTFTSYNMHWVKQTPGRGLEWIGAIYPGNGDTSYNQKFKGKATLTADKSSSTAYMQLSSLTSEDSAVYYCARSTYYGGDWYFNVWGAGTTVTVSAASTKGPSVFPLAPSSKSTSGGTAWLGCEVTDYFPEPVTVSWNSGALTSGVHTFPAVLESSGLYSLSSVVTVPSSSLGTQTYICNVNHKPSNTKVDKKVEPKSCDKTHTCPPCPAPELLGGPSVFLFPPKPKDTLMISRTPEVTCVVVDVSHEDPEVKFNWYVDGVEVHNAKTKPREEQYNSTYRVVSVLTVLHQDWLNGKEYKCKVSNKALPAPIEKTISKAKGQPREPQVYVYPPSREEMTKNQVSLTCLVKGFYPSDIAVEWESNGQPENNYKTTPPVLDSDGSFALVSKLTVDKSRWQQGNVFSCSVMHEALHNHYTQKSLSLSPGK
notes: also called CD47xCD20 bispecific; anti-CD47/anti-CD20 IgG1 1+1 heterodimer bispecific antibody
Broadly, the EC50 is the concentration that produces a half-maximal response. A low value points to greater potency. As a reminder, the Kd is the equilibrium constant for the complex coming apart. In the case of B1, the binding result (in [1]; in assay [4]; in [6]; with human CD20; in [7]; in assay [9]) was “binds” each time. Also, the binding result in [10] was “binds”; in assay [11], “binds”; with human CD20 on cells, “binds”; in the assay with mouse CD47, “no binding”. In the assay with human CD47 on cells [2], the “EC50 of macrophage phagocytosis of OCI-Ly3 cells, OCI-Ly3 Mφ EC50 (µg/mL) REPEAT” value came to 0.27 µg/mL. For the same molecule, the EC50 was 1.3 nM with human CD47 on cells [3] and 1.64 nM in the assay with human CD47 on cells [16]. Moreover, the Kd is 0.04 to 1620 nM in [5]; 2320 nM in [8]; 23000 nM in assay [12]; 4510 nM in assay [14]; 1700 nM in assay [15]. The “fold decrease in affinity relative to the parental anti-CD47 binder” value in assay [13] is ~350 fold.
